This is an account of results in FireProtDB (doi:10.1021/bi0268697).

Values joined by “and” are separate entries in the source; they are usually repeats but may differ in a detail not shown here. Equal entries are not always repeated.

Sequences and labels used below:
B1: Barstar, P11540 (parent)
chain: MKKAVINGEQIRSISDLHQTLKKELALPEYYGENLDALWDCLTGWVEYPLVLEWRQFEQSKQLTENGAESVLQVFREAKAEGCDITIILS

In the series the parent is B1. The settings on record: Bacillus amyloliquefaciens; pH 8; 25 °C; Urea; CD; Tris 20 mM; reversible: yes; structure 1BTA; whole UniProt chain shown.

Regarding MKKAVINGEQIRTISDLHQTLKKELALPEYYGENLDALFDALTGFVEYPLVLEWRQFEQSKQLTENGAESVLQVFREAKAEGCDITIILS, the “denaturant midpoint (higher = more stable)” value (“denaturant midpoint” below) is 3.4 M and 3.5 M; the unfolding free energy turned out to be 4.5 kcal/mol.
With MKKAVINGEQIRSISDLHQTLKKELCLPEYYGENLDALFDALTGFVEYPLVLEWRQFEQSKQLTENGAESVLQVFREAKAEGADITIILS, the “denaturant midpoint” value is 3.5 M and 3.4 M; the unfolding free energy is 4.4 kcal/mol and 4.3 kcal/mol.
With MKKAVINGEQIRSISDLHQTLKKELALPEYYGENLDALFDCLTGFVEYPLVLEWRQFEQSKQLTENGAESVLQVFREAKAEGADITIILS, the “denaturant midpoint” value is 3.3 M and 3.7 M; the unfolding free energy was 4.2 kcal/mol and 4.7 kcal/mol.
For the variant MKKAVINGEQIRSISDLHQTLKKELALPEYYGENLDALFDALTGFVEYPLVLEWRQFEQSKQCTENGAESVLQVFREAKAEGADITIILS, the “denaturant midpoint” value was found to be 3.3 M and the unfolding free energy was 4 kcal/mol.
